Results as given in US20130089536.

Target: Aβ1-40 peptide (UniProt P05067)

With “hGCP II (wild type human glutamate carboxypeptidase II expressed from cDNA in cells)” as the substance, how does the “Aβ1-40 cleavage in primary rat astrocytes (Aβ1-40 in growth medium by ELISA)” value read?
Its value is 2-PMPA did not block A1-40 cleavage of lentiviral GCP II.
